What was measured:
[1] = target: T1, human PD-1 (amino acids 1-185) stably expressed on Jurkat cells (human, UniProt Q15116 21-185); assay: flow cytometry, Jurkat+hPD-1
T1 construct: extracellular domain and a portion of the transmembrane domain, on cells; also called hPD-1; Jurkat+hPD-1 cell line
Description: (§1) Antibodies or antibody-attenuated hIL-2 immunoconjugates (fusion proteins) were serially diluted six-fold in FACS buffer for an 8-point curve and added to human PD-1 expressing Jurkat cells for 1 hour on ice in 100 μL volume. Cells were washed and re-suspended in FACS buffer containing 1:40 dilution of Allophycocyanin conjugated anti-human IgG Fc monoclonal antibody. Cells were washed once more, re-suspended in FACS buffer containing 1:1000 dilution of Sytox Green (Thermo Fisher) and flow cytometric analysis was conducted on the BD FACS Canto II, BD Celesta or BD Fortessa (BD Biosciences) flow cytometers. The geometric mean fluorescent intensity (gMFI) was calculated using FlowJo software version 10. Half maximal effective concentration (EC₅₀) values were calculated from the gMFI of the Allophycocyanin signal across the titrated concentrations using GraphPad Prism 7 software.
(§2) The anti-PD-1 variable region sequences were expressed as human IgG4 kappa antibodies and were evaluated for the ability to bind to PD-1 expressing cells using flow cytometry as described in General Methods Protocol A. Antibodies to be tested were first screened for binding to human PD-1 using a Jurkat cell line expressing recombinant human PD-1 (Jurkat+hPD-1 cell line).

[2] = target: human PD-1 on Jurkat Effector cells (Promega PD-1/PD-L1 blockade bioassay) (human, UniProt Q15116 25-288); assay: cell-based or functional assay
[3] = target: T1, human PD-1 (amino acids 1-185) stably …; assay: flow cytometry, Jurkat+hPD-1 cells, APC anti-human IgG Fc, gMFI; no competitor
Description: Briefly, Jurkat cells stably expressing hPD-1 (as described in Protocol A above) were washed and re-suspended in FACS buffer containing 1:50 dilution of human FcR Blocking reagent. Cells were incubated at 4° C. for 10 minutes and washed. […] Cells were washed and incubated with test antibodies or antibody-attenuated hIL-2 fusion proteins serially diluted six-fold for an 8-point curve in 100 μL volume for one hour at 4° C. To detect bound test anti-hPD-1 antibodies or anti-hPD-1-attenuated hIL-2 fusion proteins, cells were washed again and incubated with 1:40 dilution of Allophycocyanin-conjugated anti-human IgG Fc monoclonal antibody for 45 minutes on ice. Cells were washed and re-suspended in FACS buffer containing 1:1000 dilution of Sytox Green (Thermo Fisher). […] Flow cytometry was carried out on the BD Canto II, BD Celesta, or BD Fortessa (BD Biosciences) flow cytometers and gMFI was calculated using FlowJo software version 10. EC₅₀ values were calculated from the gMFI of the Allophycocyanin signal across the titrated concentrations using GraphPad Prism 7 software.

[4] = target: T1, human PD-1 (amino acids 1-185) stably …; assay: flow cytometry, Jurkat+hPD-1, multiple experiments
Description: as §1, §2

T1 sequence (Q15116 21-185 limits assumed, form in doubt): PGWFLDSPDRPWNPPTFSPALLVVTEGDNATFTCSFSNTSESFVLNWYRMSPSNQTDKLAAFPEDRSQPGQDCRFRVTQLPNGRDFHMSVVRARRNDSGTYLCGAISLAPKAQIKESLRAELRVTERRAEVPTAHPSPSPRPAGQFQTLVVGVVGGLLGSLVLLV
human PD-1 on Jurkat Effector cells (Promega PD-1/PD-L1 blockade bioassay), sequence (Q15116 25-288): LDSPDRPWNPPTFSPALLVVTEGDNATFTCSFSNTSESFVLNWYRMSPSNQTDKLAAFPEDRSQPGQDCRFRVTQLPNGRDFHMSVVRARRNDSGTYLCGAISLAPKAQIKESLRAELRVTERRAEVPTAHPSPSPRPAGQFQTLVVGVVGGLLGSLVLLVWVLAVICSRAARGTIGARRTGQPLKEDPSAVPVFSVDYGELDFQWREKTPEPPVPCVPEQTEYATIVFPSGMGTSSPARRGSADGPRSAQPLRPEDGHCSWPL

| EC50 [1] | luminescence, hPD-1/hPD-L1 blockade bioassay [2] | EC50 (read off the curve) [3] | EC50 [4] | Binder |
| --- | --- | --- | --- | --- |
| 3 to 16 nM | ~3000 RLU | – | – | OMC.2.C6-hIgG4 (antibody, V domains shown) VH: EVQLLESGGGLVQPGGSLRLSCTASGFTFSSYEMQWVRQAPGKGLEWVLGITSSSSHIFYADSVKGRFTVSRDNSKNTLYLQMNSLRAEDTAVYYCTKDLNSYYGLDVWGQGTTVTVSS VL: QSVMTQPPSASGTPGQRVTISCSGSTSNLGNNYVSWYQHLPGTAPKLLIYGNDQRPSGVPDRFSGSKSGTSASLAISGLQSDDEADYYCSSWDASLNVWVFGGGTKLTVLG |
| – | – | ~3 nM | – | C51E6-5-hIgG4 (antibody, V domains shown) VH: QVQLVQSGSELKKPGASVKVSCKASGYSLYGTSMHWVRQAPGQGLEWMGYISPFTGRATYAQGFTGRFVFSLDTSVSTAYLQISSLKAEDTAVYYCARDYDYRYYYAMDYWGQGTTVTVSS VL: EIVLTQSPDFQSVTPKEKVTITCTASESVPPQFLHWYQQKPDQSPKLLIYASRERASGVPSRFSGSGSGTDFTLTINSLEAEDAATYYCHQFHRSPLTFGGGTKLEIKR |
| 3 to 16 nM | – | – | – | A2-hIgG4 (antibody, V domains shown) VH: DVQLVESGGGLVQPGGSLRLSCAASGFTFDISAMSWVRQAPGKGLEWVSTISGSAYSTYYADSVKGRFTISRDNSKSTLYLQMNSLRAEDTAVYYCAREIFSDYWGLGTLVTVSS VL: QSVLTQPPSASGTPGQRVTISCSGSTSNIGRESVYWYQQLPGTAPKLLIYSNVQRPSGAPNRFSGSKSGTSASLAISGLQSEDEADYYCGTWDDSLNGWVFGGGTKLTVLG |
| – | – | – | 0.1 to 0.3 nM | 2H7-hIgG4 (antibody, human IgG4 kappa) heavy: not shown light: EIVLTQSPGTLSLSPGERATLSCRASQSIGKSFLAWYQQKPGQAPRLLIYDASTRAADIPARFSGSGSGTDFTLTISSLEPEDFAVYYCQQYYDWPPLSFGGGTKVEIKRTVAAPSVFIFPPSDEQLKSGTASVVCLLNNFYPREAKVQWKVDNALQSGNSQESVTEQDSKDSTYSLSSTLTLSKADYEKHKVYACEVTHQGLSSPVTKSFNRGEC |
| 3 to 16 nM | ~3000 RLU | – | – | OMC.1.D6-hIgG4 (antibody, V domains shown) VH: EVQLLESGGGLVQPGGSLRLSCAASGFTFSDYYMSWVRQAPGKGLEWVSAISSSGGTIFYADSVKGRFIISRDNSKNTLYLQMNSLRAEDTAVYYCAKHKWNDVYYDAMDVWGQGTTVTVSS VL: QSVLTQPPSASGTPGQRVTISCSGSNSNIGRNLVNWYQQLPGTAPKLLIYTVDQRPSGVPDRFSGSKSGTSASLAISGLASEDEADYYCAAWDSSLNSWVFGGGTKLTVLG |

More lines, now with the values behind:

| Binder | EC50 [1] | luminescence, hPD-1/hPD-L1 blockade bioassay [2] | EC50 (read off the curve) [3] | EC50 [4] |
| --- | --- | --- | --- | --- |
| 2A3.H7-hIgG4 (antibody, V domains shown) VH: EVQLLESGGGLVQPGGSLRLSCAASGFTFKDYCMTWVRQAPGKGLEWVSAIVYSGGSTYYADSVKGRFTISRDNSKNTLYLQMNNLRAEDTAVYYCAKYTRASYFYDAMDVWGQGTTVTVSS VL: EIVLTQSPGTLSLSPGERATLSCRASQSIGRSFLAWYQQKPGQAPRLLIYDASTRAADIPARFSGSGSGTDFTLTISSLEPEDFAVYYCQQYYDWPPLSFGGGTKVEIKR | – | ~3000 RLU | – | 0.1 to 0.3 nM |
| 1D5-hIgG4 (antibody, V domains shown) VH: EVQLLESGGGLVQPGGSLRLSCVGSGFNFKDYCMTWVRQAPGKGLEWVSAIVYSGGSTYYADSVKGRFTISRDNSKNTLYLQMNSLRAEDTAVYYCAKYTRGSYFYDAMDVWGQGTTVTVSS VL: EIVLTQSPGTLSLSPGERATLSCRASQSIGRSFLAWYQQKPGQAPRLLIYDASTRATDIPDRFSGSGSGTEFTLTISSLQSEDFAVYYCQQYYDWPPLTFGGGTKVEIKR | – | ~3000 RLU | – | 0.1 to 0.3 nM |
| 1H9-hIgG4 (antibody, V domains shown) VH: EVQLLESGGGLVQPGGSLRLSCVGSGFNLKDYCMTWVRQAPGKGLEWVSAIVYSGGSTYYADSVKGRFTISRDNSKNTLYLQMNSLRAEDTAVYYCAKYTRGSYFYDAMDVWGQGTTVTVSS VL: EIVLTQSPGTLSLSPGERATLSCRASQSIGRSFLAWYQQKPGQAPRLLIYDASTRAADIPDRFSGSGSGTDFTLTINRLEPEDFAVYYCQQYYDWPPLTFGGGTKVEIKR | – | ~3000 RLU | – | 0.1 to 0.3 nM |
| OMC.1.B6-hIgG4 (antibody, V domains shown) VH: EVQLLESGGGLVQPGGSLRLSCAASGFTFSSNYMSWVRQAPGKGLEWVSAISSSGGTIFYADSVKGRFTISRDNSKNTLYLQMNSLRAEDTAVYYCAKHKWNAVYYDGMDVWGQGTTVTVSS VL: QSVLTQPPSASGTPGQRVTISCSGSNSNIGRNLVNWYQQLPGTAPKLLIYTIDQRPSGVPDRFSGSKSGTSASLVISGLQSEDEADYYCAAWDGSLNAWVFGGGTKLTVLG | 3 to 16 nM | ~3000 RLU | – | – |
